{
  "source": "patent US7645449B2",
  "about": "“Sensitizing cells for apoptosis by selectively blocking cytokines” (priority 2003, dated 2010)",
  "key": {"[1]": {"test_system": "Bcl-xL and Bcl-2 in normal thyrocytes", "assay": "Immunoblot of Bcl-xL and Bcl-2 in normal thyrocytes cultured with cytokines", "type": "cell-based, human", "conditions": "after 48 hours of culture; IL-4 20 ng/ml, IL-10 40 ng/ml, IFN-γ 1000 IU/ml", "protocol": "Thyroid cell purification and culture. Thyroid tissues from normal, PTC, FTC and UTC were digested for 2 hours with collagenase (1.5 mg/ml) (Gibco BRL, Grand Island, N.Y.) and hyaluronidase (20 μg/ml) (Sigma Chemical Co., St. Louis, Mo.) in DMEM. Thyrocytes were purified from the digested tissues by hematopoietic cell depletion with anti-CD45-coupled beads (Dynal, Wirral Merseyside, U.K.) and 12 hours of flask adherence, which allowed removal of other cells. After additional 12 hours of culture, thyroid cells were allowed to grow in monolayer for the immunocytochemistry or detached with trypsin+EDTA following exposure to cytokines or chemotherapeutic agents for functional and protein analyses. Thyrocytes were cultured in standard DMEM with 10% heat-inactivated FBS (Hyclone Laboratories, Logan, UK) in the presence or absence of human recombinant IL-4 (20 ng/ml), IL-10 (40 ng/ml) or IFN-γ (1000 IU/ml) (uroclone, Paignton, UK) and cisplatin (300 ng/ml), doxorubicin (5 μM) and taxol (5 μM) (Sigma) or TRAIL (Alexis, San Diego, USA). For the IL-4 and IL-10 neutralization, thyroid cancer cells were pretreated, for 48 hours, with anti-human IL-4 and IL-10 neutralizing antibodies (1 μg/ml) (R&D systems, MN, USA).\nProtein isolation and Western Blotting. Cell pellets were resuspended in ice-cold NP-40 lysis buffer (50 mM Tris-HCl, pH 7.5, 150 mM NaCl, 1 mM EGTA, 1% NP-40) containing 1 mM PMSF, leupeptin (1 μg/ml), pepstatin (1 μg/ml) and aprotirni (1 μg/ml). Each lysate (30 μg) was fractioned on 12% SDS-polyacrylamide gels and blotted to nitrocellulose (Hybond, Amersham, Little Chalfont Buckinghamshire England, UK). Membrane was blocked for 1 h with nonfat dry milk in TBS containing 0.05% Tween 20 and successively incubated for 2 h with Abs specific to actin (Ab-1, mouse IgM, Calbiochem, Darmstadt, Germany), Bcl-2 (124, mouse IgG1, Upstate Biotechnology Inc.), Bcl-xL (H-5, mouse IgGl, Santa Cniz Biotechnology), IL-4 (3007.11, mouse IgG1, R&D Systems, Inc., Minneapolis, USA), IL-10 (23738.111, mouse IgG2b, R&D Systems), IFN-γ (25718.111, mouse IgG2a, R&D Systems). […]"}, "[2]": {"test_system": "primary breast carcinoma cells", "assay": "Bcl-XL expression and chemosensitivity of primary breast carcinoma cells cultivated with or without IL-4", "type": "cell-based, human", "conditions": "6 days of in vitro culture in the presence of IL-4", "from_the_text": "To confirm that IL-4-induced upregulation of Bcl-XL is able to protect epithelial breast cells from apoptosis, freshly isolated normal breast epithelial cells were exposed to IL-4 and analyzed Bcl-XL expression and sensitivity to a panel of chemotherapeutic drugs commonly used to treat breast cancer. […] To confirm that in vivo exposure to IL-4 is responsible for high Bcl-XL expression and resistance to chemotherapy in breast cancer, Bcl-XL expression and sensitivity to apoptosis of primary breast carcinoma cells cultivated in the presence or absence of IL-4 was measured Freshly isolated breast cancer cells expressed high levels of Bcl-XL and were scarcely sensitive to chemotherapeutic drugs (FIGS. 14C and D). […] Thus, in vivo IL-4 production promotes the survival of breast cancer cells. […]\nCell pellets were washed twice with cold PBS and lysed on ice for 30 minutes with 1% NP40 lysis buffer (20 mM Tris-HCl pH 7.2, 200 mM NaCl, 1% NP40) in the presence of 1 mM phenylmethylsulphonyl fluoride (PMSF) and 2 μg/ml each of aprotinin, leupeptin and pepstatin. […] Lysate concentration was determined using the Bio-Rad protein assay (Bio-Rad Laboratories, Richmond, Calif.). […]"}},
  "data": [
    {"molecule": "IL-4: human recombinant IL-4 (protein, UniProt P05112 25-153, looked up) Interleukin-4: HKCDITLQEIIKTLNSLTEQKTLCTELTVTDIFAASKNTTEKETFCRAATVLRQFYSHHEKDTRCLGATAQQFHRHKQLIRFLKRLDRNLWGLAGLNSCPVKEANQSTLENFLERLKTIMREKYSKCSS", "values": [
      {"measurement": "Bcl-xL and Bcl-2 expression in normal thyrocytes", "setting": "[1]", "result": "upregulated"},
      {"measurement": "Bcl-XL levels in primary breast cancer cells", "setting": "[2]", "result": "maintained high Bcl-XL levels"},
      {"measurement": "sensitivity of primary breast cancer cells to chemotherapeutic drugs", "setting": "[2]", "result": "low sensitivity to chemotherapeutic drugs"}
    ]}
  ]
}
